# Measured values: patent US20240301046A1 (MABWELL THERAPEUTICS, published 2024)
# Like-named read-outs stand apart in the source and are kept apart here.
# B1: 18P01A (mIgG1) (antibody, V domains shown)
# VH: EVQLVESGGGLVQPGGSLKLSCAVSGFTFSGSAMHWVRQASGKGLEWVGRIRSKANSYATAYAASVKGRFTISRDDSKNTAFLQMNSLKTEDTAVYYCTSHAPNFDAFDIWGQGTMVTVSS
# VL: QSVLTQPPSVSAAPGQKVTISCSGSSSNIGNHYVSWYQQLPGTAPKFFIYDNSKRPSGIPDRFSGSKSGTSATLGITGLQTGDEADYYCGTWDSSLSTYVFGTGTKVTVL
# notes: chimeric: fully human F(ab')2 (human VH, VL, CH1, CL), mouse IgG1 CH2-CH3; also called Chimeric mouse 18P01A (mlgG1); Original 18P01A (mlgG1)
# B2: 20O07A (mIgG1) (antibody, V domains shown)
# VH: EVQLVESGGGLVQPGGSLKLSCAVSGFTFSGSAIHWVRQASGKGLEWVGRIRSKVNSYATVYAASVKGRFTISRDDSKNTAFLQMNSLKTEDTAVYYCTSHAPIFDAFDIWGQGTMVTVSS
# VL: QSVLTQPPSVSAAPGQKVTISCSGSSSNIGNHYVSWYQQLPGTAPKFLIYDNSKRPSGIPDRFSGSKSGTSATLGITGLQTGDEADYYCGTWDSSLSTYFFGTGTKVTVL
# notes: chimeric: fully human F(ab')2, mouse IgG1 CH2-CH3; also called Chimeric mouse 20O07A (mlgG1)
# B3: 17P04A (mIgG1) (antibody, V domains shown)
# VH: EVQLVESGGGLVKPGGSLRLSCAASGFTLSSFSMNWVRQAPGKGLEWVSSISSRRTYIYYADSAKGRFTFSRDNAKNSLYLQMNSLRAEDSAVYYCARGGYIGSPNAYDIWGQGTMVTVSS
# VL: QTVVTQEPSLTVSPGGTVTLTCASSTGAVTSDYYPNWFQQKPGQAPRALIYSASTKHSWTPARFSGSLLGGKAALTLSGVQPEDEADYYCLLYYGGAWVFGGGTKLTVL
# notes: chimeric: fully human F(ab')2, mouse IgG1 CH2-CH3; also called 17P64A; 17P4A
# B4: 17P04A(mIgG2a) (antibody)
# heavy: EVQLVESGGGLVKPGGSLRLSCAASGFTLSSFSMNWVRQAPGKGLEWVSSISSRRTYIYYADSAKGRFTFSRDNAKNSLYLQMNSLRAEDSAVYYCARGGYIGSPNAYDIWGQGTMVTVSSASTKGPSVFPLAPCSRSTSESTAALGCLVKDYFPEPVTVSWNSGALTSGVHTFPAVLQSSGLYSLSSVVTVPSSNFGTQTYTCNVDHKPSNTKVDKTVERKCPPCKCPAPNLLGGPSVFIFPPKIKDVLMISLSPIVTCVVVDVSEDDPDVQISWFVNNVEVHTAQTQTHREDYNSTLRVVSALPIQHQDWMSGKEFKCKVNNKDLPAPIERTISKPKGSVRAPQVYVLPPPEEEMTKKQVTLTCMVTDFMPEDIYVEWTNNGKTELNYKNTEPVLDSDGSYFMYSKLRVEKKNWVERNSYSCSVVHEGLHNHHTTKSFSRTPGK
# light: QTVVTQEPSLTVSPGGTVTLTCASSTGAVTSDYYPNWFQQKPGQAPRALIYSASTKHSWTPARFSGSLLGGKAALTLSGVQPEDEADYYCLLYYGGAWVFGGGTKLTVLGQPKAAPSVTLFPPSSEELQANKATLVCLISDFYPGAVTVAWKADSSPVKAGVETTTPSKQSNNKYAASSYLSLTPEQWKSHRSYSCQVTHEGSTVEKTVAPTECS
# notes: chimeric: human F(ab')2, mouse IgG2a CH2-CH3, recombinant
# How the values were obtained:
# [1] = biological target: T1, Aβ1-42 (rPeptide, A-1167-2) (UniProt P05067 672-713); test: direct ELISA, coated Aβ1-42
# T1 construct: domain: Aβ1-42; also called Abeta 1-42
# Protocol: (§1) Direct ELISA was used to test each antibody's affinity for Aβ₁₋₄₂ and pyroglutamate-modified Aβ (Aβₚ₃₋₄₂). Plates were coated with 0.5 μM of Aβ₁₋₄₂ (rPeptide, A-1167-2) or Aβₚ₃₋₄₂ (AnaSpec, AS-29907-01) for 2 h at 4° C. Diluents of antibodies (3-fold serial dilutions with concentrations in the range of 0-100 nM) were added to the plate for 1 h at RT. Binding of antibody to immobilized Aβ on each plate was detected by HRP-labeled secondary antibody and TMB substrate, as described in Example 2.
# [2] = biological target: T2, biotin-labelled Aβ1-40 monomer (AnaSpec, AS-61483-01) (UniProt P05067 672-711, biotin label, position not stated); test: capture ELISA, coated antibody, biotin-Aβ1-40 monomer
# T2 construct: domain: Aβ1-40; also called biotin-conjugated Aβ40 monomer; biotin-Aβ monomer
# Protocol: (§2) A 96-well plate was coated with 5 μg/mL of antibodies overnight at RT. The plate was then treated with diluents of biotin-labelled Aβ₁₋₄₀ monomers (AnaSpec, AS-61483-01, 4-fold serial dilutions with concentrations in the range of 0-1000 nM) for 1 h at RT. The binding of biotin-labelled Aβ₁₋₄₀ monomers with immobilized antibody was detected by HRP-conjugated streptavidin and TMB, as described in Example 2.
# [3] = biological target: T1, Aβ1-42 (rPeptide, A-1167-2); test: direct ELISA, coated Aβ1-42; remark: listed apart in the source
# [4] = biological target: T1, Aβ1-42 (rPeptide, A-1167-2); test: direct ELISA, coated Aβ1-42; remark: listed apart in the source
# [5] = biological target: T3, pyroglutamate-modified Aβ (Aβp3-42) (AnaSpec, AS-29907-01) (UniProt P05067 674-713, pyroglutamate at Aβ position 3 (the N-terminus)); test: direct ELISA, coated Aβp3-42
# T3 construct: domain: Aβp3-42; also called Abeta p3-42
# Protocol: After 3 washes with 1× Phosphate-Buffered Saline, 0.1% Tween 20 (PBST), each plate was blocked with 1% BSA in PBS for 1 h at room temperature (RT). Diluents of Aβ antibodies (3-fold serial dilutions with concentrations in the range of 0-100 nM) were added to plates. The plate was incubated for 1 h at RT and washed 3 times. The plate was then incubated with HRP conjugated goat anti-mouse IgG (Thermo Fisher Scientific, G-21040; thermofisher.com) 1:5000 diluted in 1% BSA for 1 h at RT and washed 3 times. TMB (3,3′,5,5;-tetramethylbenzidine) Stabilized Chromogen substrate solution (Life Technologies (Thermo Fisher Scientific) SB02) was added to the plate, and the reaction was stopped by adding 1M sulfuric acid. The absorbance at 450 nm was measured in a plate reader.
# as §1
# [6] = biological target: T4, HiLyte488 labelled Aβ1-42 protofibrils (UniProt P05067 672-713, HiLyte488 fluorophore on part of the peptides (labelled and unlabelled Aβ1-42 monomers mixed 1:5)); test: cell-based or functional assay
# [7] = biological target: T2, biotin-labelled Aβ1-40 monomer …; test: capture ELISA, coated antibody, biotin-Aβ1-40 monomer; remark: listed apart in the source
# Protocol: The plate was incubated for 1 h at RT and washed 3 times with PBST. The plate was then incubated with HRP-conjugated streptavidin (Thermo Fisher Scientific, SNN2004) at 1:5000 diluted in 1% BSA for 20 min at RT and washed 3 times. TMB Stabilized Chromogen substrate solution (Life Technologies, SB02) was added to the plate, and the reaction was stopped by adding 1M sulfuric acid. The absorbance at 450 nm was measured in a plate reader.
# as §2
# [8] = biological target: T4, HiLyte488 labelled Aβ1-42 protofibrils; test: cell-based or functional assay; remark: listed apart in the source
# [9] = biological target: T4, HiLyte488 labelled Aβ1-42 protofibrils; test: cell-based or functional assay; remark: listed apart in the source
# [10] = biological target: T3, pyroglutamate-modified Aβ (Aβp3-42) …; test: direct ELISA, coated Aβp3-42; remark: listed apart in the source
# [11] = biological target: T2, biotin-labelled Aβ1-40 monomer …; test: capture ELISA, coated antibody, biotin-Aβ1-40 monomer; remark: listed apart in the source
# [12] = biological target: T3, pyroglutamate-modified Aβ (Aβp3-42) …; test: direct ELISA, coated Aβp3-42; remark: listed apart in the source
# Protocol: as §1
# [13] = biological target: T1, Aβ1-42 (rPeptide, A-1167-2); test: direct ELISA, coated Aβ1-42; remark: listed apart in the source
# [14] = biological target: T5, Aβ1-42 protofibril (UniProt P05067 672-713); test: ratio of competitive ELISA IC50s, monomer as reference
# T5 construct: domain: Aβ1-42; soluble multimer of Aβ1-42; also called Aβ protofibril; Aβ protofibrils
# Text: The binding was detected by HRP-labeled secondary antibody and TMB substrate, as described in Example 2.
Binder,EC50 [1],EC50 [2],EC50 [3],EC50 [4],EC50 [5],ADCP (RFU) [6],EC50 [7],ADCP (RFU) [8],relative ADCP [9],EC50 [10],EC50 [11],EC50 [12],EC50 [13],ratio of IC50 monomer to IC50 protofibril [14]
B1,0.062 nM,67 nM,< 0.1 nM,0.062 nM,57.6 nM,673000 RFU,67 nM,480000 RFU,1.36 relative to ADCP response of rfmAb-1,57.6 nM,67 nM,> 50 nM,0.062 nM,
B2,0.05 nM,2.57 nM,< 0.1 nM,0.05 nM,,,,334000 RFU,1.05 relative to ADCP response of rfmAb-1,336 nM,2.57 nM,> 50 nM,,> 300 fold
B3,0.045 nM,35.2 nM,< 0.1 nM,0.045 nM,203 nM,328000 RFU,35.2 nM,284000 RFU,0.79 relative to ADCP response of rfmAb-1,203 nM,35.2 nM,> 50 nM,0.045 nM,
B4,,,,,19.4 nM,375000 RFU,59 nM,,,,,,0.057 nM,
